# “And” between values parts separate entries of the source, which are not always exact repeats. Identical values can stand only once.
# Legend:
# [1] = target: the molecule itself; assay: cross-linking; 23 uM purified AbLrp^C6His dialyzed against 20 mM Hepes, 150 mM NaCl, pH 8.0; DSS (3 mM), 30 min at room temperature, quenched with Tris-Cl; SDS-PAGE (12.5%) and Western blot with anti-His antibodies; without leucine, with or without DNA (300 ng) containing the Lrp binding site
# [2] = target: the molecule itself; assay: cross-linking; 23 uM purified AbLrp^C6His dialyzed against 20 mM Hepes, 150 mM NaCl, pH 8.0; DSS (3 mM), 30 min at room temperature, quenched with Tris-Cl; SDS-PAGE (12.5%) and Western blot with anti-His antibodies; with leucine (5 mM), with or without DNA (300 ng) containing the Lrp binding site
protein,measurement,setting,value
"A. baumannii DS002 Lrp protein (AbLrp^C6His), leucine responsive regulatory protein (natural protein, Acinetobacter baumannii DS002, UniProt V5VJ98 1-155, looked up, Leucine responsive regulatory protein (Lrp) of Acinetobacter baumannii DS002; lrp gene amplified from chromosomal DNA with primers HS36 FP/HS36 RP and cloned in pET23b as NdeI and XhoI fragment (pHS10); not shown: His6, C-terminal, kept) MRPLDRIDRMILDILQREGRIAISELASRVNLSTTPCSERVKRLERDGIIMGYYARLNPAYVDRNLLVFLEIKLSAKSGDVFDQVARDLVEIPEVLECHLISGEFDYLVKARLKEMSAYRRLLGDLLKKLPASASSHSYVVMEEVKETLYLDVSK",stoichiometry N,[1],4
same,stoichiometry N,[2],2 and 3

# Source: paper PMC11869524, “A leucine responsive small RNA AbcR200 regulates expression of the lactate utilization (lut) operon in Acinetobacter baumannii DS002” (The Journal of Biological Chemistry, 2025)
